# Test results from US20240058465A1 (SUTRO BIOPHARMA, published 2024).
# Key:
# [1] = molecular target: T1, human ROR1 (hROR1) expressed on cells (human, UniProt Q01973 30-937); experiment: flow cytometry, HCT116-hROR1 cells
# T1 construct: Mino cells are the target positive cells of the killing assay; also called receptor tyrosine kinase like orphan receptor 1; HCT 116-hROR1
# human ROR1-ECD = molecular target: T2, human ROR1-ECD (human, UniProt Q01973 30-406); experiment: SPR (Biacore), antibody captured by anti-Fc, human ROR1-ECD analyte
# T2 construct: Bought protein; also called hROR1; ROR1-extracellular domain
# Procedure: Anti-Fc polyclonal antibodies were immobilized onto a CMS chip (GE Life Sciences) using amine coupling chemistry (from Amine Coupling Kit, GE Life Sciences). The immobilization steps were carried out at a flow rate of 25 μL/min in 1×HBS-EP+buffer (GE Life Sciences; 10× Stock diluted before use). The sensor surfaces were activated for 7 min with a mixture of NHS (0.05 M) and EDC (0.2 M). The Anti-Fc antibodies were injected over all 4 flow cells at a concentration of 25 ug/ml in 10 mM sodium acetate, pH 4.5, for 7 min. Ethanolamine (1 M, pH 8.5) was injected for 7 min to block any remaining activated groups.
# Off-rate and kinetic binding experiments were performed at 25° C. using 1×HBS-EP+buffer. Test and control antibodies were injected over the anti-Fc surface at concentrations of 5-10 μg/mL for 12 seconds at a flow rate of 10 μL/min on flow cells 2, 3 and 4, followed by a buffer wash for 30 seconds at the same flow rate. […] After capturing ligand (antibody) on the anti-Fc surface, the analyte (hROR1, Fz or Kr domains, Acro Biosystems, Delaware) was bound for 180 seconds, followed by a 600 second dissociation phase at a flow rate of 50 μL/min. Between each ligand capture and analyte binding cycle, regeneration was carried out using 2 injections of 10 mM Glycine pH 2.0 for 30 seconds at 30 μL/min, followed by a 30 second buffer wash step.
# [2] = molecular target: T1, human ROR1 (hROR1) expressed on cells; experiment: cell-based or functional assay
Binder,Bmax (MFI) [1] [MFI],Kd [1] [nM],Kd (human ROR1-ECD) [nM],koff (human ROR1-ECD) [s⁻¹],kon (human ROR1-ECD) [M⁻¹ s⁻¹],"Mino Nb-PBD, drug-conjugated 2° antibody Cell Killing IC50 [2] [nM]","Mino Nb-PBD, drug-conjugated 2° antibody Cell Killing Span [2] [%]"
"SRP2188-D09 (antibody, IgG1, V domains shown, IgG1 with trastuzumab LC; HIS- and FLAG-tagged; cell-free expressed) VH: EVQLVESGGGLVQPGGSLRLSCAASGFNIRDYDIHWVRQAPGKGLEWVVGIDPGDGSTDYADSVKGRFTISADTSKNTAYLQMNSLRAEDTAVYYCARDFGVFDYWGQGTLVTVSS VL: not shown",8970,0.06,0.366,0.00028,766000,0.0013,70
"SRP2188-E04 (antibody, IgG1, V domains shown, IgG1 with trastuzumab LC; HIS- and FLAG-tagged; cell-free expressed) VH: EVQLVESGGGLVQPGGSLRLSCAASGFNISDYDIHWVRQAPGKGLEWVAGIDPQDGSTDYADSVKGRFTISADTSKNTAYLQMNSLRAEDAAVYYCARDFGVFDYWGQGTLVTVSS VL: not shown",9860,0.03,0.604,0.000468,775000,0.00087,66
"SRP2188-F08 (antibody, IgG1, V domains shown, IgG1 with trastuzumab LC; HIS- and FLAG-tagged; cell-free expressed) VH: EVQLVESGGGLVQPGGSLRLSCAASGFNIPDFEIHWVRQAPGKGLEWVARIEPDDGATDYADSVKGRFTISADTSKNTAYLQMNSLRAEDTAVYYCARDYGVFDYWGQGTLVTVSS VL: not shown",9030,0.02,0.428,0.000422,987000,0.00071,75
"SRP2188-E03 (antibody, IgG1, V domains shown, IgG1 with trastuzumab LC; HIS- and FLAG-tagged; cell-free expressed) VH: EVQLVESGGGLVQPGGSLRLSCAASGFNIRDYDIHWVRQAPGKGLEWVAGIDPDDGSTDYADSVKGRFTISADTSKNTAYLQMNSLRAEDTAVYYCARDYGVYDYWGQGTLVTVSS VL: not shown",10300,0.02,0.464,0.000333,718000,0.0013,65
"SRP2188-E01 (antibody, IgG1, V domains shown, IgG1 with trastuzumab LC; HIS- and FLAG-tagged; cell-free expressed) VH: EVQLVESGGGLVQPGGSLRLSCAASGFNIGDYDIHWVRQAPGKGLEWVVGIDPQDGATDYADSVKGRFTISADTSKNTAYLQMNSLRAEDTAVYYCARDYGVFDYWGQGTLVTVSS VL: not shown",9370,0.06,0.827,0.000387,468000,0.0015,69

# The next lines start with results.
Bmax (MFI) [1] [MFI],Kd [1] [nM],Kd (human ROR1-ECD) [nM],koff (human ROR1-ECD) [s⁻¹],kon (human ROR1-ECD) [M⁻¹ s⁻¹],Binder,"Mino Nb-PBD, drug-conjugated 2° antibody Cell Killing IC50 [2] [nM]","Mino Nb-PBD, drug-conjugated 2° antibody Cell Killing Span [2] [%]"
8960,0.03,0.373,0.000316,846000,"SRP2188-G03 (antibody, IgG1, V domains shown, IgG1 with trastuzumab LC; HIS- and FLAG-tagged; cell-free expressed) VH: EVQLVESGGGLVQPGGSLRLSCAASGFNIVDYDIHWVRQAPGKGLEWVVGIDPRDGSTDYADSVKGRFTISADTSKNTAYLQMNSLRAEDTAVYYCARDFGVFDYWGQGTLVTVSS VL: not shown",0.00097,70
9480,0.03,0.313,0.000249,794000,"SRP2188-F11 (antibody, IgG1, V domains shown, IgG1 with trastuzumab LC; HIS- and FLAG-tagged; cell-free expressed) VH: EVQLVESGGGLVQPGGSLRLSCAASGFNITGYDIHWVRQAPGKGLEWVGGIDPEDGATDYADSVKGRFTISADTSKNTAYLQMNSLRAEDTAVYYCARDYGVFDYWGQGTLVTVSS VL: not shown",0.00099,68
8920,0.02,0.49,0.000443,905000,"SRP2188-G02 (antibody, IgG1, V domains shown, IgG1 with trastuzumab LC; HIS- and FLAG-tagged; cell-free expressed) VH: EVQLVESGGGLVQPGGSLRLSCAASGFNIVGYDIHWVRQAPSKGLEWVGGIDPNDGATDYADSVKGRFTISADTSKNTAYLQMNSLRAEDTAVYYCARDYGVFDYWGQGTLVTVSS VL: not shown",0.00047,74
